Assay [1] has as its target AMCA-labeled C-terminal peptide of mouse PDE6A, S-farnesylated and carboxymethylated (mouse). Kind of assay: FRET or BRET. Background: Bioluminescence resonance energy transfer reports proximity on the nanometre scale.
The target of assay [2] is PDE6 γ-subunit with a single Cys at position 35, labeled with 3-(bromo acetyl)-7-diethyl aminocoumarine (UniProt P04972). Kind of assay: other fluorescence titration.
Assay [3] concerns the target FITC-labeled C-terminal peptide of HSP90a. Kind of assay: fluorescence polarisation. (In general: In fluorescence polarisation assays a small probe gives low polarisation when free and higher when bound to something large.)
For assay [4], the target named is T1, hAIPL1 R302L mutant, His6-tagged (human, UniProt Q9NZN9 1-384, R302L).
T1 sequence (looked up): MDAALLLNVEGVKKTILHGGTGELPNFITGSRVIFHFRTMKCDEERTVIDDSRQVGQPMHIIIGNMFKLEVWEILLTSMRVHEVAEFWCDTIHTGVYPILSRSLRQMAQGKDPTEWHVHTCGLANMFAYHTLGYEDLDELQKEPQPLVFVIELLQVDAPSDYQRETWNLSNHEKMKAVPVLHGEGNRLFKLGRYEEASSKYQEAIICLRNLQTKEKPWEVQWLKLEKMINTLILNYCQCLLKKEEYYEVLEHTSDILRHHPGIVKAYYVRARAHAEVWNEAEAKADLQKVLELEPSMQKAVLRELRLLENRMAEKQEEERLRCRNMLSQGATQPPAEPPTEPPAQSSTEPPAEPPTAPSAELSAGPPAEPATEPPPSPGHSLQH
Kind of assay: FRET or BRET.

The target of assay [5] is T2, hAIPL1 P376S mutant, His6-tagged (human, UniProt Q9NZN9 1-384, P376S).
T2 sequence (looked up): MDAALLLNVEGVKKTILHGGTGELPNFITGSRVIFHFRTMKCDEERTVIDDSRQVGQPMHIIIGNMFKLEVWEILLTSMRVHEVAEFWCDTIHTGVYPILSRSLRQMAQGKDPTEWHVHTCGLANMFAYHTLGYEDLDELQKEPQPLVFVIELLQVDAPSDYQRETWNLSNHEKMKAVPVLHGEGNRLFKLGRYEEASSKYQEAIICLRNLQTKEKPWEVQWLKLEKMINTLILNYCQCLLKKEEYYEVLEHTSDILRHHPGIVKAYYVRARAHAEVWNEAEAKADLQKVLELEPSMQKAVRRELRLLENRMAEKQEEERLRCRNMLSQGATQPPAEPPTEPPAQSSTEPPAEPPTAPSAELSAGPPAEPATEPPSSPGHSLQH
As to the kind of experiment: FRET or BRET.

The target in assay [6] is T3, hAIPL1 1–316 lacking the proline-rich domain, His6-tagged (human, UniProt Q9NZN9 1-316).
T3 sequence (looked up): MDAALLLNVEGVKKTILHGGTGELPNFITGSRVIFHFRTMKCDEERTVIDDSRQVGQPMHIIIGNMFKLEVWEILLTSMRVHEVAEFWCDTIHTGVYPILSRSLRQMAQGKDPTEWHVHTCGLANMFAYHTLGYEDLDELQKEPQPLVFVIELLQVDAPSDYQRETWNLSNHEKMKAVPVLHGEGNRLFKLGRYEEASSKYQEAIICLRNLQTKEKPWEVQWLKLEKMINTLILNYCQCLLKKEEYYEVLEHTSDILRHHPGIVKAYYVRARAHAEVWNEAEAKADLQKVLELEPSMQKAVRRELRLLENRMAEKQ
Kind of assay: FRET or BRET.

Assay [7] concerns the target T4, human aryl hydrocarbon receptor-interacting protein-like 1 (hAIPL1), full length, His6-tagged (human, UniProt Q9NZN9 1-384).
T4 sequence (looked up): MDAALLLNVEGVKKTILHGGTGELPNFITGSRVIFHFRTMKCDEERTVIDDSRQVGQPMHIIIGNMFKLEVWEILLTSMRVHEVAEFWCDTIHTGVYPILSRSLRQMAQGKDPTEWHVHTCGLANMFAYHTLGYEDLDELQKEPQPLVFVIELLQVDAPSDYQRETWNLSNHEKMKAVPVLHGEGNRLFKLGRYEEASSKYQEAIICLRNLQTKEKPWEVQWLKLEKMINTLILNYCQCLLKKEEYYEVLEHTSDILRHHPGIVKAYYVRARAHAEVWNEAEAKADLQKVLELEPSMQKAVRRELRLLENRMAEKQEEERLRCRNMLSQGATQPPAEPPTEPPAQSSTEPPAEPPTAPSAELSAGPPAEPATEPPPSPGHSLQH
As to the kind of experiment: FRET or BRET.

The target of assay [8] is T4, human aryl hydrocarbon …. Kind of assay: other fluorescence titration.

Usually Kd stands for the constant that tells how readily two partners part at equilibrium.

No end group written: not given here. *: point of attachment. Farnesyl = CC(C)=CCC/C(C)=C/CC/C(C)=C/C*

As for “hAIPL1 P351∆12 mutant, His6-tagged (from UniProt Q9NZN9 1-384) (natural protein)”, the Kd was determined as 140 nM in assay [1], 1380 nM in assay [2] and 32800 nM in assay [3].

B1: human aryl hydrocarbon receptor-interacting protein-like 1 (hAIPL1), full length, His6-tagged (natural protein)
chain: MDAALLLNVEGVKKTILHGGTGELPNFITGSRVIFHFRTMKCDEERTVIDDSRQVGQPMHIIIGNMFKLEVWEILLTSMRVHEVAEFWCDTIHTGVYPILSRSLRQMAQGKDPTEWHVHTCGLANMFAYHTLGYEDLDELQKEPQPLVFVIELLQVDAPSDYQRETWNLSNHEKMKAVPVLHGEGNRLFKLGRYEEASSKYQEAIICLRNLQTKEKPWEVQWLKLEKMINTLILNYCQCLLKKEEYYEVLEHTSDILRHHPGIVKAYYVRARAHAEVWNEAEAKADLQKVLELEPSMQKAVRRELRLLENRMAEKQEEERLRCRNMLSQGATQPPAEPPTEPPAQSSTEPPAEPPTAPSAELSAGPPAEPATEPPPSPGHSLQH
As for B1, the Kd in assay [2] is 990 nM; in assay [3] it was 20800 nM.

B2: hAIPL1 R302L mutant, His6-tagged (natural protein)
chain: MDAALLLNVEGVKKTILHGGTGELPNFITGSRVIFHFRTMKCDEERTVIDDSRQVGQPMHIIIGNMFKLEVWEILLTSMRVHEVAEFWCDTIHTGVYPILSRSLRQMAQGKDPTEWHVHTCGLANMFAYHTLGYEDLDELQKEPQPLVFVIELLQVDAPSDYQRETWNLSNHEKMKAVPVLHGEGNRLFKLGRYEEASSKYQEAIICLRNLQTKEKPWEVQWLKLEKMINTLILNYCQCLLKKEEYYEVLEHTSDILRHHPGIVKAYYVRARAHAEVWNEAEAKADLQKVLELEPSMQKAVLRELRLLENRMAEKQEEERLRCRNMLSQGATQPPAEPPTEPPAQSSTEPPAEPPTAPSAELSAGPPAEPATEPPPSPGHSLQH
Turning to B2, the Kd in assay [2] was 810 nM; in assay [3], 27200 nM.

B3: hAIPL1 P376S mutant, His6-tagged (natural protein)
chain: MDAALLLNVEGVKKTILHGGTGELPNFITGSRVIFHFRTMKCDEERTVIDDSRQVGQPMHIIIGNMFKLEVWEILLTSMRVHEVAEFWCDTIHTGVYPILSRSLRQMAQGKDPTEWHVHTCGLANMFAYHTLGYEDLDELQKEPQPLVFVIELLQVDAPSDYQRETWNLSNHEKMKAVPVLHGEGNRLFKLGRYEEASSKYQEAIICLRNLQTKEKPWEVQWLKLEKMINTLILNYCQCLLKKEEYYEVLEHTSDILRHHPGIVKAYYVRARAHAEVWNEAEAKADLQKVLELEPSMQKAVRRELRLLENRMAEKQEEERLRCRNMLSQGATQPPAEPPTEPPAQSSTEPPAEPPTAPSAELSAGPPAEPATEPPSSPGHSLQH
B3: the Kd in assay [2] worked out at 950 nM; in assay [3], 23000 nM.

B4: hAIPL1 1–316 lacking the proline-rich domain, His6-tagged (domain or fragment)
chain: MDAALLLNVEGVKKTILHGGTGELPNFITGSRVIFHFRTMKCDEERTVIDDSRQVGQPMHIIIGNMFKLEVWEILLTSMRVHEVAEFWCDTIHTGVYPILSRSLRQMAQGKDPTEWHVHTCGLANMFAYHTLGYEDLDELQKEPQPLVFVIELLQVDAPSDYQRETWNLSNHEKMKAVPVLHGEGNRLFKLGRYEEASSKYQEAIICLRNLQTKEKPWEVQWLKLEKMINTLILNYCQCLLKKEEYYEVLEHTSDILRHHPGIVKAYYVRARAHAEVWNEAEAKADLQKVLELEPSMQKAVRRELRLLENRMAEKQ
For B4, the Kd came to 730 nM in assay [2] and 20800 nM in assay [3].

For GAPASKSC(Farnesyl) (also: Cys carboxymethylated, AMCA-X conjugated) [AMCA-labeled C-terminal peptide of mouse PDE6A, S-farnesylated and carboxymethylated], the Kd worked out at 160 nM in assay [4], 200 nM in assay [5], 240 nM in assay [6] and 110 nM in assay [7].

B5: PDE6 γ-subunit with a single Cys at position 68, labeled with 3-(bromo acetyl)-7-diethyl aminocoumarine (natural protein, UniProt P04972 1-87, looked up)
chain: MNLEPPKAEIRSATRVMGGPVTPRKGPPKFKQRQTRQFKSKPPKKGVQGFGDDIPGMEGLGTDITVICPWEAFNHLELHELAQYGII
modifications: 3-(bromo acetyl)-7-diethyl aminocoumarine (BC) on Cys68
Molecule B5 returned a Kd in assay [8] of 2500 nM.

The values are drawn from article PMC6309207 (Journal of neurochemistry, 2015).
